Laboratory results: US20060177880A1 (ROCHE DIAGNOSTICS OPERATIONS, published 2006)

Molecular target: T1, ILEU (Leukocyte elastase inhibitor) (human, UniProt P30740 1-379)
T1 sequence: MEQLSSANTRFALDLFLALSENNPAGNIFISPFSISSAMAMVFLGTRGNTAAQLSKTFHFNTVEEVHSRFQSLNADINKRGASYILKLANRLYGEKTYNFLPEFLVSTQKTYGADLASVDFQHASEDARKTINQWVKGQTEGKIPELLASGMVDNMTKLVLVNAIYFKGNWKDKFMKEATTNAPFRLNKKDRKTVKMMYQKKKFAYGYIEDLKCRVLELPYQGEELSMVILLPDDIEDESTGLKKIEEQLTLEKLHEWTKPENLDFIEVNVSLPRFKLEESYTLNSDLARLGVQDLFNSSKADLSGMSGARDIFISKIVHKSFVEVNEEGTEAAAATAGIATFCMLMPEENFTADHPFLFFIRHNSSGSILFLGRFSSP
Experiment: 2D gel (IEF and SDS-PAGE) of tumor tissue lysate, spot identified by MALDI-TOF mass spectrometry
Protocol: For IEF, 3 ml of the suspension are mixed with 12 ml sample buffer (7 M urea, 2 M thiourea, 2% CHAPS, 0.4% IPG buffer pH 6-9, 0.5% DTT) and incubated for 1 h. The samples are concentrated in an Amicon® Ultra-15 device (Millipore GmbH, Schwalbach, Germany) and the protein concentration is determined using the Bio-Rad® protein assay (Cat. No. 500-0006; Bio-Rad Laboratories GmbH, Munchen, Germany) following the instructions of the supplier's manual. To a volume corresponding to 1.5 mg of protein sample buffer is added to a final volume of 350 μl. This solution is used to rehydrate IPG strips pH 6-9 (Amersham Biosciences, Freiburg, Germany) overnight. The IEF is performed using the following gradient protocol: 1.) 1 minute to 500 V; 2.) 2 h to 3,500 V; 3.) 22 h at constant 3,500 V giving rise to 82 kVh. After IEF, strips are stored at −80° C. or directly used for SDS-PAGE. […]
Each patient is analyzed separately by image analysis with the ProteomeWeaver® software (Definiens AG, Germany, München). […] For each patient, 4 gels from the tumor sample are compared with 4 gels each from adjacent normal and stripped mucosa tissue and analyzed for distinctive spots corresponding to differentially expressed proteins. […]

binding result: binds
B1: PRN3 (proteinase 3) (enzyme)
chain: IVGGHEAQPHSRPYMASLQMRGNPGSHFCGGTLIHPSFVLTAAHCLRDIPQRLVNVVLGAHNVRTQEPTQQHFSVAQVFLNNYDAENKLNDVLLIQLSSPANLSASVATVQLPQQDQPVPHGTQCLAMGWGRVGAHDPPAQVLQELNVTVVTFFCRPHNICTFVPRRKAGICFGDSGGPLICDGIIQGIDSFVIWGCATRLFPDFFTRVALYVDWIRSTLR
notes: Endogenous protein in lysates of human colorectal tumor tissue, with an apparent MW of ~28 kDa on the blot; also called uncomplexed PRN3
